Assay results reported in publication PMC11633381, “Acarbose impairs gut Bacteroides growth by targeting intracellular glucosidases” (mBio, 2024).

Biological target: the molecule itself
Test: SEC; 0.5 mL of 10.6 mg/mL BoSusA or 8.2 mg/mL SusA on HiPrep 16/60 Sephacryl S-200 HR, 20 mM HEPES, 100 mM NaCl, pH 7.0, 0.5 mL/min; compared with BioRad gel filtration standards

B1: SusA, periplasmic GH13 neopullulanase/alpha-amylase of the Bacteroides thetaiotaomicron Sus (enzyme, UniProt Q8A1G0 23-617, looked up)
chain: TSTIKKVAPTFWWAGMKNPELQILLYGDRISSADVSLSADNITLQEVVKQENPNYLVLYLDLSKAAPQNFDIILKQGKKQTKIPYELKQRRPNASAVEGFDSSDVLYLIMPDRFANGNPSNDIIPGMLEGNVDRNEPFARHGGDLKGIENHLDYIADLGVTSIWLNPIQENDMKEGSYHGYAITDYYQVDRRFGSNEEFRKLTQEANAKGLKVVMDMIFNHCGSDNYLFKDMPSKDWFNFEGNYVQTSFKTATQMDPYASDYEKKIAIDGWFTLTMPDFNQRNRHVATYLIQSSIWWIEYAGINGIRQDTHPYADFDMMARWCKAVNEEYPKFNIVGETWLGNNVLISYWQKDSRLAYPKNSNLPTVMDFPLMEEMNKAFDEETTEWNGGLFRLYEYLSQDIVYSHPMSLLTFLDNHDTSRFYRSEADTKNLDRYKQALTFLLTTRGIPQIYYGTEILMAADKANGDGLLRCDFPGGWPNDTKNCFDAANRTPQQNEAFSFMQKLLQWRKGNEVIAKGQLKHFAPNKGVYVYERKYGDKSVVVFLNGNDREQTIDLVPYQEILPASSAFDLLTEKKVELRNELTLPSREIYLLSF
notes: SusA, Bacteroides thetaiotaomicron VPI-5482, locus tag bt_3704 (NCBI AAO78809.1, 617 amino acids); cloned starting with T23, after the SPI signal peptide; also called bt_3704
- stoichiometry N: 2
